Series [1] concerns control peptide DTANNPLF KEATSTFT-COOH.
Series [2] has as its system control peptide KEATSTFTNIT FRGTCOOH
Series [3] has as its system recombinant β3 integrin cytoplasmic tail-GST fusion protein.
Series [4] deals with β3 integrin cytoplasmic peptide specific for tyrosine-747 (DTANNPLYpKEATSTFT-COOH).
In series [5] the test system is β3 integrin cytoplasmic peptide specific for tyrosine-759 (KEATSTFTNITYpRGT-COOH).

Experimental findings from US20090298769 are described below.

Consider c-Src of HUVEC (endogenous), for which the “[γ-32P] ATP incorporation, in vitro kinase assay (control peptide, lower incorporation)” value in series [1] and in series [2] was “a dramatic increase in [γ-^32P] ATP incorporation was observed as compared to control peptides devoid of tyrosine motifs” each time. Moreover, the “[γ-32P] ATP incorporation, in vitro kinase assay” value in series [3] was “the immunoprecipitated c-Src can phosphorylate β3 integrin cytoplasmic domain”; in series [4], “In the presence of Tyr-747/Tyr-759 β3 integrin cytoplasmic peptide, a dramatic increase in [γ-^32P] ATP incorporation was observed as compared to control peptides devoid of tyrosine motifs”; in series [5] it was “In the presence of Tyr-747/Tyr-759 β3 integrin cytoplasmic peptide, a dramatic increase in [γ-^32P] ATP incorporation was observed as compared to control peptides devoid of tyrosine motifs”.
Consider purified, recombinant full-length c-Src, for which the “[γ-32P] ATP incorporation, in vitro kinase assay” value in series [3] is listed as “Recombinant purified c-Src also phosphorylated the β3 integrin whereas no phosphorylation was observed without the substrate”.
